Experimental findings from patent publication US20150374794A1 (Novo Nordisk, published 2015) are described below.

In test [1] the target is T1, human GLP-1 receptor (human, UniProt P43220 24-463).
T1 construct: whole, on cells; the potency assay used whole cells (clone FCW467-12A/KZ10-1)
Description: displacement of 125I-GLP-1(7-36)NH2, membranes with human GLP-1R, SPA. As for the experimental part: The receptor binding of each compound to the human GLP-1 receptor was measured in a displacement binding assay. […] Each derivative was added in a series of concentrations to isolated membranes containing the human GLP-1 receptor and displacement of the labelled ligand was monitored. The receptor binding was reported as the concentration at which half of the labelled ligand was displaced from the receptor, the IC₅₀ value.

Test [2] deals with T1, human GLP-1 receptor. Description: cell-based or functional assay.
The target of test [3] is T2, human glucagon receptor (human, UniProt P47871 26-477). Description: cell-based or functional assay.
T2 sequence (P47871 26-477): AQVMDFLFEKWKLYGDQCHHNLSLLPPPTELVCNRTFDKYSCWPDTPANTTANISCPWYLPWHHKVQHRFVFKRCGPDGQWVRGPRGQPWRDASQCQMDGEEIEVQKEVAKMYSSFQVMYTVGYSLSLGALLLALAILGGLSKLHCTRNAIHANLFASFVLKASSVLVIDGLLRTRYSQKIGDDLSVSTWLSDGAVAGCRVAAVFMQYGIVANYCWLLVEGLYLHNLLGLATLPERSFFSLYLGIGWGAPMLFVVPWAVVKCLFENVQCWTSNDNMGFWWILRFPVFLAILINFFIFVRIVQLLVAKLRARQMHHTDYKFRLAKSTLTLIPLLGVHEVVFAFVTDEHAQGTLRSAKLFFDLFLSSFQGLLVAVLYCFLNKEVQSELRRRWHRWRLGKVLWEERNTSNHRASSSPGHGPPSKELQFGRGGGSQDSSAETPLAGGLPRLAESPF
Test [4] has as its target T2, human glucagon receptor. Description: displacement of 125I-glucagon, membranes with human glucagon receptor, SPA. On the procedure:
The receptor binding of each compound to the human glucagon receptor was measured in a displacement binding assay. […] Each derivative was added in a series of concentrations to isolated membranes containing the human glucagon receptor and displacement of the labelled ligand is monitored. The receptor binding was reported as the concentration at which half of the labelled ligand is displaced from the receptor, the IC₅₀ value.
For orientation: Loss of bound radioactivity is the signal in a displacement assay; it reports binding, not function.

Numbered stars: 1 amine (or outer) side, 2 acyl side, 3 side chain; on linkers, the order of the positions; unused ones are H or OH. Square brackets hold non-standard residues; d marks the D form. Side chains are listed from the residue outwards. Ends that are not written are not given here. * marks the point of attachment. C18 diacid = O=C(O)CCCCCCCCCCCCCCCCC(=O)*; γGlu = O=C(O)[C@H](CCC(=O)[*:2])N[*:1]; Ac4c = NC1(C(=O)O)CCC1; AEEA = NCCOCCOCC(=O)O; Aib = CC(C)(N)C(=O)O

B1: N^ε28-[(4S)-4-carboxy-4-[[(4S)-4-carboxy-4-[[2-[2-[2-[[2-[2-[2-[[(4S)-4-carboxy-4-(17-carboxyheptadecanoylamino)butanoyl]amino]ethoxy]ethoxy]acetyl]amino]ethoxy … (peptide)
peptide: H[Ac4c]QGTFTSDLSKYLESRRAREFVQWLLK([γGlu-γGlu-AEEA-AEEA-γGlu-C18 diacid])T-NH2
modifications: N-terminus assumed
SMILES: CC(C)C[C@H](NC(=O)[C@H](Cc1ccc(O)cc1)NC(=O)[C@H](CCCCN)NC(=O)[C@H](CO)NC(=O)[C@H](CC(C)C)NC(=O)[C@H](CC(=O)O)NC(=O)[C@H](CO)NC(=O)[C@@H](NC(=O)[C@H](Cc1ccccc1)NC(=O)[C@@H](NC(=O)CNC(=O)[C@H](CCC(N)=O)NC(=O)C1(NC(=O)[C@@H](N)Cc2c[nH]cn2)CCC1)[C@@H](C)O)[C@@H](C)O)C(=O)N[C@@H](CCC(=O)O)C(=O)N[C@@H](CO)C(=O)N[C@@H](CCCNC(=N)N)C(=O)N[C@@H](CCCNC(=N)N)C(=O)N[C@@H](C)C(=O)N[C@@H](CCCNC(=N)N)C(=O)N[C@@H](CCC(=O)O)C(=O)N[C@@H](Cc1ccccc1)C(=O)N[C@H](C(=O)N[C@@H](CCC(N)=O)C(=O)N[C@@H](Cc1c[nH]c2ccccc12)C(=O)N[C@@H](CC(C)C)C(=O)N[C@@H](CC(C)C)C(=O)N[C@@H](CCCCNC(=O)CC[C@H](NC(=O)CC[C@H](NC(=O)COCCOCCNC(=O)COCCOCCNC(=O)CC[C@H](NC(=O)CCCCCCCCCCCCCCCCC(=O)O)C(=O)O)C(=O)O)C(=O)O)C(=O)N[C@H](C(N)=O)[C@@H](C)O)C(C)C
A word on the IC50: it is the concentration needed to halve the response being measured. Regarding B1, in test [1], the IC50 came to 0.3 nM. Besides, the “EC50 GLP-1R, CRE luciferase reporter gene assay in BHK cells” value (“EC50 GLP-1R” below) in test [2] stood at 0.003 nM. For the same molecule, in test [3], the “EC50 GlucR, CRE luciferase reporter gene assay in BHK cells” value (“EC50 GlucR” for short) came out at 0.01 nM.

B2: N^ε28-[(4S)-4-carboxy-4-[[(4S)-4-carboxy-4-[[2-[2-[2-[[2-[2-[2-[[(4S)-4-carboxy-4-[[(4S)-4-carboxy-4-(17-carboxyheptadecanoylamino)butanoyl]amino]butanoyl]amino … (peptide)
peptide: H[Ac4c]QGTFTSDLSKYLESRRAREFVQWLLK([γGlu-γGlu-AEEA-AEEA-γGlu-γGlu-C18 diacid])T-NH2
modifications: N-terminus assumed
SMILES: CC(C)C[C@H](NC(=O)[C@H](Cc1ccc(O)cc1)NC(=O)[C@H](CCCCN)NC(=O)[C@H](CO)NC(=O)[C@H](CC(C)C)NC(=O)[C@H](CC(=O)O)NC(=O)[C@H](CO)NC(=O)[C@@H](NC(=O)[C@H](Cc1ccccc1)NC(=O)[C@@H](NC(=O)CNC(=O)[C@H](CCC(N)=O)NC(=O)C1(NC(=O)[C@@H](N)Cc2c[nH]cn2)CCC1)[C@@H](C)O)[C@@H](C)O)C(=O)N[C@@H](CCC(=O)O)C(=O)N[C@@H](CO)C(=O)N[C@@H](CCCNC(=N)N)C(=O)N[C@@H](CCCNC(=N)N)C(=O)N[C@@H](C)C(=O)N[C@@H](CCCNC(=N)N)C(=O)N[C@@H](CCC(=O)O)C(=O)N[C@@H](Cc1ccccc1)C(=O)N[C@H](C(=O)N[C@@H](CCC(N)=O)C(=O)N[C@@H](Cc1c[nH]c2ccccc12)C(=O)N[C@@H](CC(C)C)C(=O)N[C@@H](CC(C)C)C(=O)N[C@@H](CCCCNC(=O)CC[C@H](NC(=O)CC[C@H](NC(=O)COCCOCCNC(=O)COCCOCCNC(=O)CC[C@H](NC(=O)CC[C@H](NC(=O)CCCCCCCCCCCCCCCCC(=O)O)C(=O)O)C(=O)O)C(=O)O)C(=O)O)C(=O)N[C@H](C(N)=O)[C@@H](C)O)C(C)C
B2 came in with an IC50 in test [1] of 0.3 nM. Moreover, the “EC50 GLP-1R” value in test [2] was 0.006 nM. The “EC50 GlucR” value in test [3] stood at 0.011 nM.

B3: N^ε16-[(4S)-4-carboxy-4-[[(4S)-4-carboxy-4-[[2-[2-[2-[[2-[2-[2-[[(4S)-4-carboxy-4-(17-carboxyheptadecanoylamino)butanoyl]amino]ethoxy]ethoxy]acetyl]amino]ethoxy … (peptide)
peptide: H[Aib]QGTFTSDLSKYLDK([γGlu-γGlu-AEEA-AEEA-γGlu-C18 diacid])KRAQEFVQWLLNT-NH2
modifications: N-terminus assumed
SMILES: CC(C)C[C@H](NC(=O)[C@H](Cc1ccc(O)cc1)NC(=O)[C@H](CCCCN)NC(=O)[C@H](CO)NC(=O)[C@H](CC(C)C)NC(=O)[C@H](CC(=O)O)NC(=O)[C@H](CO)NC(=O)[C@@H](NC(=O)[C@H](Cc1ccccc1)NC(=O)[C@@H](NC(=O)CNC(=O)[C@H](CCC(N)=O)NC(=O)C(C)(C)NC(=O)[C@@H](N)Cc1c[nH]cn1)[C@@H](C)O)[C@@H](C)O)C(=O)N[C@@H](CC(=O)O)C(=O)N[C@@H](CCCCNC(=O)CC[C@H](NC(=O)CC[C@H](NC(=O)COCCOCCNC(=O)COCCOCCNC(=O)CC[C@H](NC(=O)CCCCCCCCCCCCCCCCC(=O)O)C(=O)O)C(=O)O)C(=O)O)C(=O)N[C@@H](CCCCN)C(=O)N[C@@H](CCCNC(=N)N)C(=O)N[C@@H](C)C(=O)N[C@@H](CCC(N)=O)C(=O)N[C@@H](CCC(=O)O)C(=O)N[C@@H](Cc1ccccc1)C(=O)N[C@H](C(=O)N[C@@H](CCC(N)=O)C(=O)N[C@@H](Cc1c[nH]c2ccccc12)C(=O)N[C@@H](CC(C)C)C(=O)N[C@@H](CC(C)C)C(=O)N[C@@H](CC(N)=O)C(=O)N[C@H](C(N)=O)[C@@H](C)O)C(C)C
For the molecule B3, the values for the IC50 in test [1] and in test [4] were 2.4 nM and 1.1 nM, respectively.

Regarding H[Aib]QGTFTSDLSKYLESKRAREFVQWLLK([Gly-Ser-Glu-Gly-Ser-γGlu-γGlu-C18 diacid])T-NH2, the IC50 is 0.2 nM in test [1] and 5.1 nM in test [4]. Also, the “EC50 GLP-1R” value in test [2] was 0.0057 nM.

As for H[Ac4c]QGTFTSDLSKYLESKRAREFVQWLLK([Gly-Ser-Glu-Gly-Ser-γGlu-γGlu-C18 diacid])T-NH2, the IC50 came out at 0.2 nM in test [1] and 0.6 nM in test [4]. Also, in test [3], the “EC50 GlucR” value was 0.004 nM.

In the case of H[Ac4c]QGTFTSDLSKYLESKRAREFVQWLLK([γGlu-γGlu-Ser-Glu-Ser-γGlu-γGlu-C18 diacid])T-NH2, the figures for the 50% inhibitory concentration (IC50) in test [1] and in test [4] were 0.3 nM and 0.6 nM, respectively. The “EC50 GlucR” value in test [3] was 0.005 nM.

B4: N^ε28-[(4S)-4-carboxy-4-[[(4S)-4-carboxy-4-[[2-[2-[2-[[2-[2-[2-[[(4S)-4-carboxy-4-(17-carboxyheptadecanoylamino)butanoyl]amino]ethoxy]ethoxy]acetyl]amino]ethoxy … (peptide)
peptide: H[Aib]HGTFTSDLSKYLESRRAREFVQWLLK([γGlu-γGlu-AEEA-AEEA-γGlu-C18 diacid])T-NH2
modifications: N-terminus assumed
SMILES: CC(C)C[C@H](NC(=O)[C@H](Cc1ccc(O)cc1)NC(=O)[C@H](CCCCN)NC(=O)[C@H](CO)NC(=O)[C@H](CC(C)C)NC(=O)[C@H](CC(=O)O)NC(=O)[C@H](CO)NC(=O)[C@@H](NC(=O)[C@H](Cc1ccccc1)NC(=O)[C@@H](NC(=O)CNC(=O)[C@H](Cc1c[nH]cn1)NC(=O)C(C)(C)NC(=O)[C@@H](N)Cc1c[nH]cn1)[C@@H](C)O)[C@@H](C)O)C(=O)N[C@@H](CCC(=O)O)C(=O)N[C@@H](CO)C(=O)N[C@@H](CCCNC(=N)N)C(=O)N[C@@H](CCCNC(=N)N)C(=O)N[C@@H](C)C(=O)N[C@@H](CCCNC(=N)N)C(=O)N[C@@H](CCC(=O)O)C(=O)N[C@@H](Cc1ccccc1)C(=O)N[C@H](C(=O)N[C@@H](CCC(N)=O)C(=O)N[C@@H](Cc1c[nH]c2ccccc12)C(=O)N[C@@H](CC(C)C)C(=O)N[C@@H](CC(C)C)C(=O)N[C@@H](CCCCNC(=O)CC[C@H](NC(=O)CC[C@H](NC(=O)COCCOCCNC(=O)COCCOCCNC(=O)CC[C@H](NC(=O)CCCCCCCCCCCCCCCCC(=O)O)C(=O)O)C(=O)O)C(=O)O)C(=O)N[C@H](C(N)=O)[C@@H](C)O)C(C)C
B4: the IC50 in test [1] turned out to be 0.6 nM. The “EC50 GLP-1R” value in test [2] amounted to 0.0146 nM. Moreover, in test [3], the “EC50 GlucR” value stood at 0.0036 nM.

B5: N^ε28-[(4S)-4-carboxy-4-[[2-[2-[2-[[2-[2-[2-[[(4S)-4-carboxy-4-[[(4S)-4-carboxy-4-(17-carboxyheptadecanoylamino)butanoyl]amino]butanoyl]amino]ethoxy]ethoxy]acet … (peptide)
peptide: H[Aib]HGTFTSDLSKYLESRRAREFVQWLLK([γGlu-AEEA-AEEA-γGlu-γGlu-C18 diacid])T-NH2
modifications: N-terminus assumed
SMILES: CC(C)C[C@H](NC(=O)[C@H](Cc1ccc(O)cc1)NC(=O)[C@H](CCCCN)NC(=O)[C@H](CO)NC(=O)[C@H](CC(C)C)NC(=O)[C@H](CC(=O)O)NC(=O)[C@H](CO)NC(=O)[C@@H](NC(=O)[C@H](Cc1ccccc1)NC(=O)[C@@H](NC(=O)CNC(=O)[C@H](Cc1c[nH]cn1)NC(=O)C(C)(C)NC(=O)[C@@H](N)Cc1c[nH]cn1)[C@@H](C)O)[C@@H](C)O)C(=O)N[C@@H](CCC(=O)O)C(=O)N[C@@H](CO)C(=O)N[C@@H](CCCNC(=N)N)C(=O)N[C@@H](CCCNC(=N)N)C(=O)N[C@@H](C)C(=O)N[C@@H](CCCNC(=N)N)C(=O)N[C@@H](CCC(=O)O)C(=O)N[C@@H](Cc1ccccc1)C(=O)N[C@H](C(=O)N[C@@H](CCC(N)=O)C(=O)N[C@@H](Cc1c[nH]c2ccccc12)C(=O)N[C@@H](CC(C)C)C(=O)N[C@@H](CC(C)C)C(=O)N[C@@H](CCCCNC(=O)CC[C@H](NC(=O)COCCOCCNC(=O)COCCOCCNC(=O)CC[C@H](NC(=O)CC[C@H](NC(=O)CCCCCCCCCCCCCCCCC(=O)O)C(=O)O)C(=O)O)C(=O)O)C(=O)N[C@H](C(N)=O)[C@@H](C)O)C(C)C
In test [1], B5 yielded an IC50 of 1.4 nM. In addition, the “EC50 GLP-1R” value in test [2] came out at 0.0357 nM. Moreover, the “EC50 GlucR” value in test [3] was 0.0048 nM.

In test [1], H[Aib]QGTFTSDLSKYLESKRAREFVQWLLK([γGlu-γGlu-Ser-Glu-Ser-γGlu-γGlu-C18 diacid])T-NH2 displayed an IC50 of 0.2 nM. Also, the “EC50 GLP-1R” value in test [2] is 0.004 nM.

H[Aib]QGTFTSDLSKYLDLRRAQDFVQWLLK([γGlu-γGlu-Ser-Glu-Ser-γGlu-γGlu-C18 diacid])T-NH2 displayed an IC50 in test [1] of 1.9 nM. Further, in test [2], the “EC50 GLP-1R” value came to 0.011 nM. Further, the “EC50 GlucR” value in test [3] came to 0.007 nM.

For the molecule H[Aib]QGTFTSDLSKYLDKKAAREFVAWLLNT-NH2 (not fully specified), the results for the IC50 in test [1] and in test [4] were 0.2 nM and 53 nM, respectively.
